The text below walks through data of PMC4759255.

For the data set, the target named is T1, His-LexA (Synechocystis sp. PCC 6803) (UniProt P73722).
T1 sequence: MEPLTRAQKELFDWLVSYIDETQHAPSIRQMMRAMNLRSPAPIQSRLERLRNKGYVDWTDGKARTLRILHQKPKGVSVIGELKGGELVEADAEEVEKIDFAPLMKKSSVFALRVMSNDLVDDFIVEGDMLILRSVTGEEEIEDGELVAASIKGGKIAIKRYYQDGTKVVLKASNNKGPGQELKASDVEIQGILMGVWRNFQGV
Description: EMSA. The following applies: Roche DIG gel shift kit 2nd generation buffer per manufacturer plus 1 mM DTT, 25 min at room temperature, 6% polyacrylamide gel; 5x and 50x unlabeled ….

As for “GTGACAACTAACATCACCTAGATGATAAGTTAATTTACAACAAATGATTGTTAGCCAGCTCACCAAAACCTGTGACAATAAACACCAAAACAGTTTACTTGTTTCTATAATTTTCCCTGAAACTGGGGTTTGAGAGGGTCTAGGGGAGAATTTAGTTATTGTTTGGATATATTGTCATGGCACCACAAAAGCCGTCAACAAA (double strand) [pilA9 promoter]”, the binding result was “binds”.
In the case of “TGGGATCAAACAACAAGAAAAAATCAATTTACCCTGCCCATGGCAATAGTTTTAAGGTTAACAAAAAAAATAGAATTTACCGCAATCGACGGGTAAATTTCCAGAGGATACCCCCAACTCCAGAAGCAGAAATCTTGCCAGAAAAGCTTTTTCTGTTACTATACTTAACAAGTAACTACTTTTTCC (double strand) [ggpS promoter]”, the binding entry is “binds”.
In the case of “TGGGCAGGGTAAATTGATTTTTTCTTGTTGTTTGATCCCATTTTCCAGTCTTTTTGACTTCCATTCAGTCAGGATAATTTTTGCAGTTTTTTTATGGAGTTTTGATAACATTGAGCTTTGCCCCCGGCGATCGCCTAGGGATAAACAATAAACGTGTGAACTAATATGCCTGGATTTATCCCTGGATTGACATTGTTTTTGCC (double strand) [slr1670 promoter]”, the binding result is on record as “binds”.
The entry for “TTGTTCAAGATCATTAGGCTTTAGTATATTTATAGTGATCAAAAAAGCAAGTGGTGAAAGAAACACCCAGACAAATATTCACAAAACTTAATTTTACTTAACAAATCATAATCCAGTTACGCAGTTACCACCTACACGGGAACCAGAACGCACGATTCCCAAGCCGGAAGAAATTACTAAGCATGGCTCATAGGATGTTCTAC (double strand) [pilA7 promoter]” is “binds”.
